According to patent US20030175278A1:

Key:
Assay in all cases: Y2H β-galactosidase liquid culture assay (ONPG)
[1] = molecular target: PS1-COOH terminus Y2H bait (human)
[2] = molecular target: PS1-Loop Y2H bait (human)
[3] = molecular target: PS2-Loop Y2H bait (human) (UniProt P49810)
Chain of PS2-Loop Y2H bait (human) (P49810 271-361): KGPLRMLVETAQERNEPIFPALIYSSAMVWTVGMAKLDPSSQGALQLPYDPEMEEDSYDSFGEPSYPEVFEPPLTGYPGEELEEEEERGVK

Chain of PS1-Loop Y2H bait (human) (P79802 273-380): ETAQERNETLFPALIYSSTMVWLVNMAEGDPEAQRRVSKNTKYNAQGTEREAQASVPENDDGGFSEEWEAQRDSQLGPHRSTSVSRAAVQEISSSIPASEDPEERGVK

- fold β-galactosidase activity compared with negative-control baits [1]: > 12 fold
- interaction strength relative to the PS2-COOH-terminal bait [2]: 2 fold
- interaction strength relative to the PS2-COOH-terminal bait [3]: 2 fold
Substance: near full-length ubiquilin-prey clone (FIG. 2 III, construct H without GST), M37-S595 (from UniProt Q9UMX0 37-587)
